Measured values published in US20240158496A1 (Johns Hopkins, published 2024).

Assays:
[1] = biological target: T1, recombinant human (rh) CEACAM-1 (human, UniProt P13688 35-428, limits assumed); test: protein A-agarose pull-down, CEACAM1 immunoblot
T1 construct: Recombinant protein used in the in vitro protein A pull-down
T1 sequence (looked up): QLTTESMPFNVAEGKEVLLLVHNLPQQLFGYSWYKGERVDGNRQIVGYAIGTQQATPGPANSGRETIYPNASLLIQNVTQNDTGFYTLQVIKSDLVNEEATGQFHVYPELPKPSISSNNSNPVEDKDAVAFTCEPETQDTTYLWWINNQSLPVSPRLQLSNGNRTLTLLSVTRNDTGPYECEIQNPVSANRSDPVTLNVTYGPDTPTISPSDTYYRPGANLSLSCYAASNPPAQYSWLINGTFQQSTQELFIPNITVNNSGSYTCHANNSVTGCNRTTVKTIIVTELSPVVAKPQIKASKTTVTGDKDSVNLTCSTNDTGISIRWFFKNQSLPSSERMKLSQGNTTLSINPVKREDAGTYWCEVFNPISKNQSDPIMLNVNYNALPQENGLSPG
Procedure: The precipitated complexes were washed with immunoprecipitation buffer, re-suspended in NuPAGE sample buffer with reducing agent, boiled, resolved on a Bis-Tris Criterion XT Gel system and transferred to a PVDF membrane. Membranes were immunoblotted with primary antibodies [CEACAM1 (D1P4T); TIM3 (D5D5R™)] overnight, washed, incubated with secondary antibodies and visualized by Amersham ECL Western Blotting Detection Reagents. […] This assay is also used to evaluate the binding of any antibody-ligand trap comprising a ligand-binding sequence of a ligand-binding sequence of TIM-3 ectodomain(TIM-3ecd) to rh CEACAM-1.

[2] = biological target: T2, CEACAM-1 on co-stimulated human T cells (human, UniProt P13688 35-526); test: protein A-agarose immunoprecipitation of lysates of co-stimulated human PBMC treated for 6 d, CEACAM1 immunoblot
T2 construct: whole, on cells; Endogenous protein
T2 sequence (looked up): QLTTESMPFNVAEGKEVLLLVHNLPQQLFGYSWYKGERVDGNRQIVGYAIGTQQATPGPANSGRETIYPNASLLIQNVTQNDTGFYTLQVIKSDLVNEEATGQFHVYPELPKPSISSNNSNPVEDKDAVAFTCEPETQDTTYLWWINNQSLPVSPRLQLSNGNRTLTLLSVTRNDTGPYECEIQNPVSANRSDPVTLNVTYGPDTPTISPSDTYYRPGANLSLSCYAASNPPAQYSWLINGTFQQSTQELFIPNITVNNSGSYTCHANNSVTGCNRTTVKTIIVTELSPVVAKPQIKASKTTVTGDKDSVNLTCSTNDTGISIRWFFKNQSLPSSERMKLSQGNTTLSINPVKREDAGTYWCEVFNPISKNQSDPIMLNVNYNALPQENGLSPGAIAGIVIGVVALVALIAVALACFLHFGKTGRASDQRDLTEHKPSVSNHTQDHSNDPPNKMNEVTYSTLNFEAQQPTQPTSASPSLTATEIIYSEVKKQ
Procedure: The precipitated complexes were washed with immunoprecipitation buffer, re-suspended in NuPAGE sample buffer with reducing agent, boiled, resolved on a Bis-Tris Criterion XT Gel system and transferred to a PVDF membrane. Membranes were immunoblotted with primary antibodies [CEACAM1 (D1P4T); TIM3 (D5D5R™)] overnight, washed, incubated with secondary antibodies and visualized by Amersham ECL Western Blotting Detection Reagents.

binding result [2]: no binding
B1: α-PD1 mAb (nivolumab) (antibody)
heavy: not shown
light: not shown
notes: Parent antibody used as a control; also called α-PD1 antibody (nivolumab); a-PD1 mAb (nivolumab)
binding result [1]: no binding (tested: 10 µg antibody with 5 µg rhCEACAM-1)
